Among the data in article doi:10.1101/2020.12.10.419135 are Kd values, retold here.

The assay has as its target Recombinant human glutamine synthetase (GS) (human) (UniProt P15104). The assay can be described thus: MST.
UniProt P15104, sequence (P15104 whole entry): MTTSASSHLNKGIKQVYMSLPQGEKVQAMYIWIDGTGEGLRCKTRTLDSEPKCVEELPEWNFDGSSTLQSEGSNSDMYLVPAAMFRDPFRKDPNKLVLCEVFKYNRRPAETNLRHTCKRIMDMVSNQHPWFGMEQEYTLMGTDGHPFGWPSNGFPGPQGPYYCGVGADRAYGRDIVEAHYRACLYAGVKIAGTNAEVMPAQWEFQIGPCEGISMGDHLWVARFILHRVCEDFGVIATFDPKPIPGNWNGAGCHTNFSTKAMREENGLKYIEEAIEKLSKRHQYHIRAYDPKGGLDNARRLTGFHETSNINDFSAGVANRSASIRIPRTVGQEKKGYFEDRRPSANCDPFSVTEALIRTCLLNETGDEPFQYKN

Regarding contryphan-Bt (peptide), the Kd was 74 µM.
